# From US20220112295A1 (Novo Nordisk, published 2022)
# T1: native human CD30L expressed on Ramos cells (human, UniProt P32971 1-234)
# T1 construct: It is used here for the native protein on human B cell lines; also called huCD30L; Native huCD30L
# T1 sequence: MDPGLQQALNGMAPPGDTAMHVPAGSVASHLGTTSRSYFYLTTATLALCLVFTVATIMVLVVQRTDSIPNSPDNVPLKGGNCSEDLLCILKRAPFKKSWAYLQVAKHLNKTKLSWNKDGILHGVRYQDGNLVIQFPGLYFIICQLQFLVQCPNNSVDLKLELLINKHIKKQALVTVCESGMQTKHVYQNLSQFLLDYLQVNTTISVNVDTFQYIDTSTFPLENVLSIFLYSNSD
# T2: mouse CD30L (mouse, UniProt P32972 68-239, limits assumed)
# T2 construct: The form tested is not described
# T2 sequence (looked up): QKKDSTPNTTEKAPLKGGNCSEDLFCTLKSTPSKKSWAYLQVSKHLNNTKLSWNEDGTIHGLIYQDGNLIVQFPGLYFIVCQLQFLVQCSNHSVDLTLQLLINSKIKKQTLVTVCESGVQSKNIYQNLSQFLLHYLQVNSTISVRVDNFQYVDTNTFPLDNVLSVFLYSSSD
# T3: native cynomolgus monkey CD30L on activated T cells (cynomolgus monkey, UniProt A0A7N9CVX7 1-234)
# T3 construct: whole, on cells; also called cynomologous CD30L
# T3 sequence: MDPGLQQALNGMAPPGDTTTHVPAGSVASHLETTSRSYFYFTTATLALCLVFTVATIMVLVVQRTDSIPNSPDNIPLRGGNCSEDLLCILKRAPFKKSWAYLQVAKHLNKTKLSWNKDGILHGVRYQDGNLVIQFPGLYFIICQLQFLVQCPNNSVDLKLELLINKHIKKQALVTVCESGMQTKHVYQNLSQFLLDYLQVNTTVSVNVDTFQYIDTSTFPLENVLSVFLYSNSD
# B1: Antibody A (antibody, V domains shown)
# VH: QVQLQESGPGLVKPSETLSLTCTVSGGSISSYIWSWIRQPAGKGLEWIGRIYASGNTNYNPSLKSRVTMSVDTSKNQFSLKLSSMTAADTAVYYCARDYRVAGTYYYYYGLDVWGQGTTVTVSS
# VL: QSALTQPASVSGSPGQSITISCTGTSSDVGVYDYVSWYQQHPGKAPKLMIYEVSNRPSGVSNRFSGSKSGNTASLTISGLQTEDEADYYCSSYTSRSTWVFGGGTKLTVL
# notes: Human antibody (XenoMouse); also called mAb A; anti-hCD30L A
# B2: Antibody E (antibody, V domains shown)
# VH: QVQLQESGPRLVKPSETLSLTCTVSGGSITNNYWSWIRQPAGKGLEWIGRVYSSGLTNYKPSLKSRVTMSVDTSKNQFSLRLNSVTAADTAVYYCARERATVTTRYHYDGMDVWGQGTSVTVSS
# VL: QSALTQPASVSGSPGQSITISCTGSSSDIGTYNYVSWYQQYPGKAPELMIYEVNNRPSGVSDRFSGSTSGNTASLTISGLQANDEADYYCSSYSSSSTWVFGGGTKLTVL
# notes: also called mAb E
# B3: Antibody F (antibody, V domains shown)
# VH: QVQLQESGPGLVKPSETLSLTCTVSGGSISSYYWSWIRQPAGKGLEWIGRIFASGSTNYNPSLRSRVTMSRDTSKNQFSLKLSSVTAADTAVYYCAKERVGVQDYYHYSGMDVWGQGTTVTVSS
# VL: QSALTQPASVSGSPGQSITISCTGTSSDVGLYNYVSWYQQQPGKAPKLMIYEVSKRPSGVSNRFSGSTSGNTASLTISGLQADDEADYSCSSYTSSSTWVFGGGTKLTVL
# notes: also called mAb F
# B4: Antibody B (antibody, V domains shown)
# VH: QVQLQESGPGLVKPSETLSLTCTVSGGSISSYYWTWIRQPAGKGLEWIGRIYTSGITNYNPSLKSRVTMSVDTSKNQFSLKLSSVTAADTAVYYCARERVVGASRYYYYGVDVWGQGTTVTVSS
# VL: QSALTQPASVSGSPGQSITISCTGTSSDVGLYNYVSWYQQHPDKAPKLMIFEVNNRPSGVSNRFSGSNSGNTASLTISGLQAEDEADYYCSSYTSSSTWVFGGGTKLTVL
# notes: also called mAb B
# B5: Antibody C (antibody, V domains shown)
# VH: QVQLQESGPGLVKPSETLSLTCTVSGGSISSYYWTWIRQPAGKGLEWIGRIYTSGITNYNPSLKSRVTMSVDTSKNQFSLKLSSVTAADTAVYYCARERVVGASRYYYYGVDVWGQGTTVTVSS
# VL: QSALTQPASVSGSPGQSITISCTGTSSDIGLYDYVSWYQQHPDRAPKLIIFEVNNRPSGVSYRFSGSNSGNTASLTISGLQAEDEADYYCSSYTSSSTWVFGGGTKLTVL
# notes: also called mAb C
# B6: Antibody D (antibody, V domains shown)
# VH: QVQLQESGPGLVKPSETLSLTCTVSGGSISSYSWSWIRQPAGKGLEWIGRTSTSGRNNYNPSLKSRVTMSVDTSKNQFSLKLNSVTAADTAVYYCARDFTIAARRYYYYGMDVWGQGTTVTVSS
# VL: QSALTQPASVSGSPGQSITISCTGTSSDIGLYNYVSWYQQHPGKAPKLIIYEVINRPSGVSNRFSGSESGNTASLTISGLQAEDEANYYCSSYTSSSTWVFGGGTKLTVL
# notes: also called mAb D
# What was measured:
# [1] = molecular target: T1, native human CD30L expressed on Ramos …; assay: FACS Kd method on Ramos cells, equilibrium, KinExA n-curve analysis
# Experimental: Binding affinity of CD30L antibodies to CD30L expressed on Ramos cells were determined by FACS Kd method. The Ramos cells were cultured in RMPI1640 media+10% FBS+L-glut+0.05% azide. Two equilibrium reactions were set up where the antibodies were titrated 1:3 from 60 nM to […] using cell culture media and incubated with two different constant cell concentrations (25000 and 250000 cells). The plates were sealed with parafilm and incubated at 37° C., 20 h, shaking. The equilibrium plates were centrifuged and cell pellets were washed twice with ice cold FACS buffer (1× D-PBS+2% FBS). The cells were then incubated with a secondary antibody goat anti-human Fe Cy5 (Jackson Immuno Research, West Grove, Pa.) and with 7AAD (BD-Biosciences, Rockville, Md.) for 1 h on ice in the dark. Following the incubation, the cells were washed twice with ice-cold FACS buffer before flow cytometry analysis. The GeoMean values of FL4 shift gated on live cell population measure the bound [Ab]. The inverse of the GeoMean values that reflects theoretical free [Ag] in the equilibrium solution was then calculated. The inverse values of the GeoMean read were used in KinExA software for analysis and Kd calculation for each antibody. The free [Ag] measure was plotted against the starting concentration of titrating component and from these plots at two different cell concentrations the Kd was obtained from curve fitting using n-curve analysis in KinExA™ Pro software. The 95% confidence interval is given as Kd low and Kd high.
# mouse CD30L = molecular target: T2, mouse CD30L; assay: not described
# [2] = molecular target: T3, native cynomolgus monkey CD30L on …; assay: FACS, antibody at 50 ug/mL, inhibition of huCD30.Fc-His binding to activated cynomolgus T cells
# Experimental: Cynomologous activated T cells were prepared by isolating peripheral blood mononuclear cells (PBMC) from heparinized cynomolgus monkey blood by density centrifugation over Isolymph (2000 rpm. for 20 minutes). PBMC were resuspended in 25 mLs of PBS, added to 300 μl of a 50% solution of 2-Aminoethylisothiouronium bromide (AET)-treated sheep erythrocytes and centrifuged at […] at 4° C. for 10 minutes. Pelleted cells were incubated at 4° C. for a further 20 minutes, gently resuspended and centrifuged over Isolymph. Supernatant was removed down to the T cell/erythrocyte pellet. The pellet was then resuspended in 25 mL of lyses buffer (0.85% ammonium chloride in water) and incubated at 37° C. for 10 minutes. The resultant T cells were pelleted and washed x2 in culture medium (RPMI-1640 medium +10% heat-inactivated fetal bovine serum) and then cultured ([…]) at 37° C. for 18 hr in the presence of 10 ng/mL Phorbol Myristate Acetate (PMA; Sigma Chemicals, St Louis, Mo.) and 500 ng/mL lonornycin (Calbiochem, San Francisco, Calif.). At the end of the culture period, cynomolgus T cells were counted and washed 1× with PBS and incubated with 2% Goat serum, 1% Rabbit serum and 0.1% Human serum in PBS for 30 minutes at […]. Cells were then stained with anti-huCD30L antibodies as described above for human Ramos cells.
# The antibodies were also screened for ability to block binding of human CD30L to a soluble human CD30. c molecule. Briefly, human Ramos cells or activated cynomolgus monkey T cells were incubated with anti-CD30L IgGs at 50 μg/mL in blocking buffer for 30 minutes at 4° C. Soluble huCD30. Fc-His was then added at a final concentration of 2.5 ug/mL (30 μL/well) and incubated for 30 minutes at 4° C. Cells were washed ×2 with PBS and incubated with 5 μg/mL of a mouse anti-His monoclonal antibody (30μL/well in blocking buffer) and incubated for 30 minutes at 4° C. After washing ×2 with PBS, cells were incubated with anti-mouse IgG-PE (1:50 in PBS; BD Pharmingen, San Diego, Calif.) for a further 30 minutes at […]. Cells were then washed ×2 with PBS and prepared for FACs analysis.
# [3] = molecular target: T1, native human CD30L expressed on Ramos …; assay: cell-based or functional assay
# [4] = molecular target: T1, native human CD30L expressed on Ramos …; assay: FACS, native human CD30L on Ramos cells
# Experimental: The supernatants were purified and recombinant antibodies were expressed as IgG1 and IgG2 constructs. The antibodies were rescreened for binding to native human and cynomologous monkey CD30L. Briefly, human Burkitt's lymphoma Ramos cells (3×10⁵/well) were incubated in round-bottomed 96-well microtiter plates (Costar® 96 well plate (Corning; Acton, Mass.) with a titration (10 μg/mL to 3.2 ng/mL final concentration) of anti-CD30L IgG antibodies in blocking buffer (PBS containing 0.02% sodium azide, 2% normal goat serum and 1% normal rabbit serum). Human […] fusion protein was included as a positive control for binding. Cells were incubated for 30 minutes at 4° C. then washed ×2 with PBS and incubated for a further 30 minutes at 4° C. with 30 μL/well of anti-hu IgG-biotin (1:50 in blocking buffer; Jackson Immunoresearch, West Grove, Pa.). After washing ×2 with PBS, cells were incubated for 30 minutes at 4° C. with 30 μL/well (1:50 dilution in PBS) of Streptavidin-Phycoerythrin (PE; Molecular Probes, Eugene, Oreg.). Cells were washed 2× with PBS and prepared for FACs analysis.
Binder,Kd [1],binding result (mouse CD30L),% inhibition [2],"IC50, inhibition of IL-8 release (K299/Ramos dual cell assay) [3]",EC50 [4]
B1,0.0255 nM,no binding,77%,0.028 nM,1.7 nM
B2,0.0521 nM,no binding,87%,0.045 nM,3.3 nM
B3,0.0357 nM,no binding,97%,0.06 nM,2.3 nM
B4,0.00743 nM,no binding,88%,0.072 nM,3.1 nM
B5,0.044 nM,no binding,83%,0.036 nM,1.7 nM
B6,0.0119 nM,no binding,84%,0.062 nM,3.3 nM
